Consider 1 molecule from patent publication US12291578B2, “Anti-matrix metalloproteinase 7 (MMP-7) inhibitory antibody and uses thereof” (Yeda Research and Development Co. Ltd., priority 2019, dated 2025).

The target in data set [1] is T1, MMP-12 (Homo sapiens, UniProt P39900). Kind of data set: ELISA binding, cross-reactivity.
A further data set deals with MMP-14 (Homo sapiens, UniProt P50281). Kind of data set: Enzymatic activity of related MMPs (fluorogenic peptide). Type of data set: biochemical. As to conditions: in vitro. The procedure: (§1) MMP-7 enzymatic kinetic assay: The enzymatic activity of MMP-7 in the presence of GSM-192 Fab was measured at 37° C. by monitoring the hydrolysis of fluorogenic peptide Mca-Pro-Leu-Gly-Leu-Dpa-Ala-Arg-NH2 (SEQ ID NO: 10) at λex=340 nm and […] as described previously^30. A range of different concentrations of GSM-192 Fab (0-200 nM) were incubated with 10 nM of MMP-7 in 50 mM Tris-HCl buffer (pH 7.5 at 37° C.), 100 mM NaCl, 5 mM CaCl2, and 0.05% Brij-35 for 2 h at 37° C. The enzymatic reaction was initiated by addition of the fluorogenic peptide to a final concentration of 10 μM. Fluorescence was recorded immediately and continuously for 30 min.
(§2) Remarkably, considering that the immunization booster also included the common zinc motif, the antibody is fully selective for MMP-7. The effect of GSM-192 Fab fragment on the enzymatic activity of human MMP-7 was examined in vitro using a short fluorogenic peptide according to a standard protocol. The enzymatic activity of recombinant active MMP-7 was measured in the presence of increasing concentrations of the Fab fragment of GSM-192. […] Simultaneously the effect of the antibody on catalytic activity of related MMPs was measured.

Data set [2] deals with T1, MMP-12. The data set is described as above. It counts as biochemical. As to conditions: in vitro. On the procedure: as §1, §2
The target in the next data set is MMP-9 (Homo sapiens, UniProt P14780). The description is as above. Type of data set: biochemical. As to conditions: in vitro. The procedure:
as §1, §2

The next data set has as its system panel of other MMPs. The data set is described as follows: ELISA binding, panel of other MMPs. The procedure: MMP-7 Elisa binding assay: A 96-well plate (Nunc) was coated with MMP at […]. After coating, the plate was incubated with the GSM-192 at 25° C. for 1 h. The bound Fab fragment/full length was detected using a goat anti-Fab/anti-mouse antibody followed by peroxidase-conjugated bovine anti-goat antibody according to standard procedures. A four-parametric sigmoidal curve-fitting analysis was used to calculate the half-maximal effective concentration.

T1 sequence (P39900 106-470): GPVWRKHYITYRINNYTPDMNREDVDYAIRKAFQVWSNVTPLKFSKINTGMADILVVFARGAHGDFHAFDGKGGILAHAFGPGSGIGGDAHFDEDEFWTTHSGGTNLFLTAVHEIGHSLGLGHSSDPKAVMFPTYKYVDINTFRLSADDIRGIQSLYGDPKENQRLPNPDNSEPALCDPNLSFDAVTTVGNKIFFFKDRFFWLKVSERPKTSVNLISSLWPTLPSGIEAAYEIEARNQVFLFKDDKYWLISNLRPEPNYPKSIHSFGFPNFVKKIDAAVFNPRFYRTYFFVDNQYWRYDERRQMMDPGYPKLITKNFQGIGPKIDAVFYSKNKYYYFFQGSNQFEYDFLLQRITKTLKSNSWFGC
Chain of MMP-9 (P14780 94-707, species assumed): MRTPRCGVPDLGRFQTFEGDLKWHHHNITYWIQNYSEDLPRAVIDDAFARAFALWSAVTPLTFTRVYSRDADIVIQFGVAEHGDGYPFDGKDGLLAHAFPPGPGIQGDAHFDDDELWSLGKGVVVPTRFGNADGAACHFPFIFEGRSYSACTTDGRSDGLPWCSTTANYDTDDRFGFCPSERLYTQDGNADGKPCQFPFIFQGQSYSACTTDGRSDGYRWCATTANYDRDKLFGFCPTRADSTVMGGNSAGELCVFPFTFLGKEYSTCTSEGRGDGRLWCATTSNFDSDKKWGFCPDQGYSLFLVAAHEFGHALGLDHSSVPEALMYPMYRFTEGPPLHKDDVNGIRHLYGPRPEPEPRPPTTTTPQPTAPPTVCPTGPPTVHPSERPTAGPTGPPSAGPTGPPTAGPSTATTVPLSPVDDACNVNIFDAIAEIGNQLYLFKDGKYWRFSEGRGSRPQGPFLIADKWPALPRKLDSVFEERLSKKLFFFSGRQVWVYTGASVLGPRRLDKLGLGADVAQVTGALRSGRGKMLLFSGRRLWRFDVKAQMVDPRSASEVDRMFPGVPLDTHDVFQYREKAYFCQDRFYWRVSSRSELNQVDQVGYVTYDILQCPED

B1: GSM-192: monoclonal antibody to MMP-7 binding the catalytic domain, not the zymogen; VL SEQ ID NO: 1, VH SEQ ID NO: 2 (antibody, V domains shown)
VH: EVQLQQSGPELVKPGASVKIPCKASGYTFTDYNMDWMKQSHGKSLEWIGHINPNNGGTFYNQKFKDKATFIVDKSSNTAYMELRSLTSEDTAVYFCARGGGLRRGPFAYWGQGTLVTVS
VL: DIVTQSPASLAVSLGQRATISCRASESFDSYGNTFVHWYQQKPGQPPKLLIYLVSNLESGVPAGFRGRGSRTDFTLTIDPVEADDAATYYCQQNNEDPYTFGGGTKLEIKRA
modifications: GSM-192 Heavy Chain Sequence; GSM-192 Light Chain Sequence
Regarding B1, the “crossreactivity to MMP-12” value with MMP-12 [1] is on record as “did not show crossreactivity”. Moreover, the “effect on catalytic activity of MMP-14” value with MMP-14 is given as “negligible or no effect”. Further, in the data set with MMP-12 [2], the “effect on catalytic activity of MMP-12” value is recorded as “negligible or no effect”. Further, in the data set with MMP-9, the “effect on catalytic activity of MMP-9” value was “negligible or no effect”. The “binding to a panel of other MMPs” value in the data set with panel of other MMPs is listed as “did not bind effectively”.
